Laboratory results from patent publication US6265535A, “Peptides and peptide analogues designed from binding sites of tumor necrosis factor receptor superfamily and their uses” (The Trustees of the University of Pennsylvania, priority 1997, dated 2001).
Bridge positions count the residues as written; N and C are the ends. Ends that are not written are not given here.

Assays:
[1] = system: L929 cells; test: Cytotoxicity assay: inhibition of TNF-α-induced cytolysis of L929 cells (MTT); type: cell-based, murine; conditions: FIG. 7
Procedure: FIG. 7. Inhibition of TNF-α-induced cytolysis of L929 cells by peptides derived from TNF-R. […] A murine fibroblast cell line, L929, was maintained in Dulbecco's modified Eagle's medium supplemented with 10% FCS, and the medium was replaced with serum free AIM-V medium (GIBCO BRL) immediately before the cells were used for the cytotoxicity assay. L929 cells were seeded at a density of 2×10^5 cells/ml in 96-well microtiter plates, and incubated for hr. at 37° C. under 5% CO2 in air. […] Immunol. Methods 119:203). Briefly, 10 μl of a 10 mg/ml solution of MTT were added to each well for 2 hr. at 37° C., and the color of the formazan product was developed by an overnight incubation at 37° C. with 100 μl of extraction buffer (20% SDS in 50% DMF, pH 4.7). The optical density of colored formazan was measured at 600 nm.

[2] = target: T1, TNF-α binding to TNF-R p55 expressed on U937 cells (Homo sapiens, UniProt P01375); test: Flow cytometry (FACS) of TNF-α binding to its cognate receptor on U937 cells, detected with anti-TNF-R antibody htr-9; type: cell-based; conditions: FIG. 6
T1 construct: endogenous in cells; host or cells: U937 (human leukemia cell line)
T1 sequence (P01375 77-233 limits assumed): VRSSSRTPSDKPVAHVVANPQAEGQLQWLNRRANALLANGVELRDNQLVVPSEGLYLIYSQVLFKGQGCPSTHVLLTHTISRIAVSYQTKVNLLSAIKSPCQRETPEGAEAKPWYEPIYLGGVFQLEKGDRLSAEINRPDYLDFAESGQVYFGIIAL
From the text: FIG. 5. […] 1=U937 cells stained with fluorescein-conjugated secondary antibody. 2=U937 cells stained with an anti-TNF receptor antibody (htr-9) and secondary antibody. 3=U937 cells stained with anti-TNF-R antibody in the presence of TNF-α and secondary antibody.
FIG. 6. […] The results represent the means from two independent experiments.
A human leukemia cell line, U937, was maintained in RPMI-1640 medium supplemented with 10% FCS. In order to quantitate the binding of TNF-α to its cognate receptor expressed on U937 cells, 1×10^5 cells were re-suspended in PBS containing 0.5% BSA and 0.05% NaN3 (binding buffer). […] Then, 50 μl of an anti-TNF receptor antibody at 3 μg/ml in binding buffer were added to the cells for 1 hr. at 4° C. The cells were washed in binding buffer and stained with 50 μl (10 μg/ml) of fluorescein-conjugated goat ant-mouse IgG secondary antibody (GIBCO BRL, Gaithersburg, Md.) for 30 min. at 4° C. in the dark. Following washing in binding buffer, the cells were analyzed using FACScan flow cytometer (Becton Dickinson). The gates were set on the live cell population, and the degree of inhibition of TNF-α/cell binding by peptides was calculated on the basis of mean values of each histogram.

[3] = target: T2, Human recombinant TNF-α (human, UniProt P01375); test: competitive radioreceptor assay, 125I-TNF-α on immobilized TNF-R-IgG
[4] = target: T2, Human recombinant TNF-α; test: flow cytometry on U937 cells, TNF-α preincubated with peptide, read out with htr-9
[5] = target: T2, Human recombinant TNF-α; test: competitive radioreceptor assay, dose-response, 125I-TNF-α on immobilized TNF-R-IgG

## CC(C)C[C@@H]1NC(=O)[C@H](Cc2ccc(O)cc2)NC(=O)[C@H](CCC(N)=O)NC(=O)[C@H](CO)NC(=O)[C@H](Cc2c[nH]c3ccccc23)NC(=O)[C@@H](NC(=O)[C@@H](N)Cc2ccc(O)cc2)CSSC[C@@H](C(=O)N[C@@H](Cc2ccc(O)cc2)C(=O)O)NC1=O [WP9QY, YC WSQYL CY]
[1]; peptide at 75 μM, TNF-α 50 pg/ml plus ACT-D 1 μg/ml
  cells protected against TNF-α-induced apoptosis/cytotoxicity: ~90%

## YC ASENH CY (YCASENHCY; disulfide 2-8 (inferred)) [WP5JY, exocyclic peptide from TNF-R loop 1 of domain 2]
[2]
  inhibition of TNF-α binding to U937 cells in dose-response assay (in words): inhibited by each peptide in a dose-dependent manner

## YC WSQNL CY (YCWSQNLCY; disulfide 2-8 (inferred)) [WP9Q, exocyclic peptide from TNF-R loop 1 of domain 3, Gln instead of Glu]
[2]
  inhibition of TNF-α binding to U937 cells in dose-response assay (in words): inhibited by each peptide in a dose-dependent manner
[1]
  inhibition of TNF-α-induced cytotoxicity of L929 cells (in words): dose-dependent inhibitory activity
  inhibitory effect on TNF-α-induced cytotoxicity relative to WP9QY: about half of the effects of WP9QY

B1: WP9Q (peptide)
peptide: YCWSQNLCY
modifications: disulfide 2-8 (inferred)
[3]
  fold activity against the best WP5 peptides: 2 fold

B2: WP9QY (peptide)
peptide: YCWSQYLCY
modifications: disulfide 2-8 (inferred)
[4]
  IC50: 75 µM
[5]
  IC50: 5 µM
